Assays:
Assay in all cases: cell-based or functional assay
[1] = biological target: HIV-1 envelope proteins of the panel of 185 pseudoviruses generated from the Antibody Mediated Prevention Trials
[2] = biological target: HIV-1 envelope proteins of the panel of 12 global reference pseudovirus strains of HIV-1
[3] = biological target: HIV-1 envelope proteins of the panel of 9 pseudoviruses resistant against CD4bs bNAbs
[4] = biological target: HIV-1 envelope proteins of the multiclade panel of 119 pseudoviruses
[5] = biological target: HIV-1 envelope proteins of the panel of 100 clade C HIV-1 pseudoviruses
[6] = biological target: HIV-1 envelope proteins of the panel of 7 pseudoviruses selected from the 'Resistant panel to CD4bs bNAbs'
[7] = biological target: HIV-1 envelope proteins of the panel of 8 pseudoviruses insensitive to neutralization by CD4bs bNAbs

B1: 04_A06 (antibody, V domains shown)
VH: SVRLDQSGTAVKKPGASVRVSCRAPDSFTVYRPRLSAYFIGEFNIHWLRQAPGQGLEWLGFVNIFRGAVKYSSRFQGRITITRDTSSETSYLDLGALKADDTATYYCAWDKNVDDNPWRLDSWGQGTLVIVSS
VL: YIQVTQSPSSLSASIGDTITVACEVSQDVGWAVNWYHQRPGRPPYNLIYTAHNLAPGVASRFRGSRVGTYFTLTINNLLPEDVGTYYCQVFDSFAPGGTRVDL
GeoMean IC50, TZM-bl cell pseudovirus neutralization assay [1]: 0.084 µg/mL
neutralization breadth, TZM-bl cell pseudovirus neutralization assay [1]: < 98%
geometric mean IC50, TZM-bl cell pseudovirus neutralization assay [2]: 0.038 µg/mL
neutralization breadth, TZM-bl cell pseudovirus neutralization assay [2]: 100%
neutralization breadth, TZM-bl cell pseudovirus neutralization assay, up to 10 µg/ml [3]: 100%
geometric mean IC50, TZM-bl cell pseudovirus neutralization assay [4]: 0.036 µg/mL
neutralization breadth, TZM-bl cell pseudovirus neutralization assay, up to 10 µg/ml [4]: 99%
geometric mean IC50, TZM-bl cell pseudovirus neutralization assay [5]: 0.057 µg/mL
neutralization breadth, TZM-bl cell pseudovirus neutralization assay, up to 10 µg/ml [5]: 99%
IC50, TZM-bl cell pseudovirus neutralization assay [6]: 0.153 µg/mL
neutralization breadth, TZM-bl cell pseudovirus neutralization assay, up to 10 µg/ml [6]: 86%

B2: 04_B09 (antibody, V domains shown)
VH: SVRLDQSGTAVKKPGASVRVSCRAPDSFTVYRPRLSAYFIGEFNIHWLRQAPGQGLEWLGFVNIFRGAVKYSSAFRGRITITRDTSLETSYLDLGALKPDDTATYFCAWDKNVDDNPWRLDSWGQGTLVVVSS
VL: YIQVTQSPSSLSASVGDTITVACQVSQDVGWAVNWYHQRPGRPPYNLIYTTSNLAPGVASRFRGTRVATYFTLTINNLLPEDVGTYYCQVFESFAPGGTRVDLR
geometric mean IC50, TZM-bl cell pseudovirus neutralization assay [2]: < 0.05 µg/mL
neutralization breadth, TZM-bl cell pseudovirus neutralization assay [2]: 100%

B3: 01_B01 (antibody, V domains shown)
VH: HVQLWQSGAEVKKPGASVKISCAAWGFGTTSGYSFRDYRIHWVRQVPGQGFQWMGHIQPRYGAVNYAHQFQGRITMTREVSFDASGGTAYMELRSLRSDDTATYYCVTHKLYDGEDASDLAWRLDPWGQGTRVTVSS
VL: GVHLTQSPASLSASVGDRVTFTCQASQDITNAINWYQLRPGKTPKLMIHDGSTLRRGVPSRFAGGGFGTKFTFTIDNLQPEDLATYFCQHYEFFPPAGTQVELN
geometric mean IC50, TZM-bl cell pseudovirus neutralization assay [2]: < 0.05 µg/mL
neutralization breadth, TZM-bl cell pseudovirus neutralization assay [2]: 100%

B4: 01_D03 (antibody, V domains shown)
VH: HVQLWQSGAEVKKPGASVKISCSAWGFGTTSGYSFRDYRVHWVRHIAGQGFQWMGHMQPRYGAVNYARQFQGRITMTREVSFDASGGTAYMELRSLRSDDTAVYYCVTHKLYDGEDASDLTWRLDPWGQGTRVIVSS
VL: GVHLTQSPASLSASVGDRVTFTCQASQDITNAINWYQLRPGKTPKLMIHDGSTLRRGVPSRFAGSGFGTKFTFTIDNLQPEDLATYFCQHYEFFPPVGTQVELN
geometric mean IC50, TZM-bl cell pseudovirus neutralization assay [2]: 0.021 µg/mL
neutralization breadth, TZM-bl cell pseudovirus neutralization assay [2]: 100%
neutralization breadth, TZM-bl cell pseudovirus neutralization assay [7]: 88%

B5: 05_C07 (antibody, V domains shown)
VH: HVQLWQSGAEVKKPGASVKISCSAWGFGTRSGYTFRDYRIHWVRQVPRQGFEWMGHLHPAYGAVNYARQFQGRIIMTREVSFDGSGGTVYMELRSLRSDDTATYYCVTHKLYDGEDASDLTWRLDPWGQGTRVTVSS
VL: GVSLTQSPASLCASVGDRVTFTCQASQDITNAINWYQLRPGKTPKLMIHDGSTLRRGVPSRFAGSGFGTRFTFTIDNLQPEDLATYFCQHYEFFPPAGTQVDFN
geometric mean IC50, TZM-bl cell pseudovirus neutralization assay [2]: < 0.05 µg/mL
neutralization breadth, TZM-bl cell pseudovirus neutralization assay [2]: 100%
